The record followed here is US6107048.

As a reminder, the IC50 is the point on the concentration scale where inhibition reaches its midpoint.

The target in one experiment is monoclonal antibody 12C3. Put plainly: competition ELISA: peptide inhibits binding of 12C3 to recombinant Rab25.
The target of another experiment is monoclonal antibody 8H10. Put plainly: competition ELISA: peptide inhibits binding of 8H10 to recombinant Rab11. (In general: ELISA stands for enzyme-linked immunosorbent assay.)

Consider KVSKQIQNSPRSNAIALGSAQAGQEPGPGQKR [Rab25 C-terminal variable region synthetic peptide], for which the IC60 with monoclonal antibody 12C3 was 1 µg/mL.

For the molecule QKQMSDRRENDMSPSNNVVPIHVPPTTENKPKVQ [Rab11 C-terminal variable region synthetic peptide], the IC50 in the experiment with monoclonal antibody 8H10 came to 1 µg/mL.
